# In patent US20250002543A1:
# Substitutions are numbered along the chain they refer to.
# B1: FpL_C3 2a (designed binder)
# chain: ETPEEPKEEVTIKVNLIFADGKIQTAEFKGTFEEATAKAYAYANLLAKEYGGYTADLEDGGNTINIKFAGHHHHHH
# B2: FpL_C3 4f (designed binder)
# chain: B1 chain with N44D, G52V, N62Y
# B3: FpL_C3 5c (designed binder)
# chain: B1 chain with N44G, E49V, G52V, N62Y
# B4: FpL_C3 5d (designed binder)
# chain: B1 chain with N44G, E49V, Y50S, G52V, N62Y
# B5: FpL_C3KR (designed binder)
# chain: B1 chain with K7R, K13R, K22R, K29R, K38R, K48R, Y50N, G52E, K67R
# B6: FpL_C3KX_5e_P6S (designed binder)
# chain: ETPEESAEEVTIRVNLIFADGRIQTAEFIGTFEEATARAYAYANLLARDYGGFTADLEDGGYTINIRFAGHHHHHH
# B7: FpL_C3KX 5e (designed binder)
# chain: B6 chain with S6P
# B8: FpL_C4KR (designed binder)
# chain: ETPEEPREEVTIRVNLIFADGRTQTAEFRGTFEEATAEAYRYADLLARVNGEYTADLEDGGYTINIRFAGHHHHHH
# B9: FpL_C3KX 3a (designed binder)
# chain: B6 chain with S6P, R22Q, D49E, F53Y
# B10: FpL_C3KX 4h (designed binder)
# chain: B6 chain with S6P, R22Q, F53Y
# B11: FpL_C3KX 7c (designed binder)
# chain: B6 chain with E4G, S6P, A47R, G52D
# B12: FpL_C3KX 6a (designed binder)
# chain: B6 chain with E4G, S6P, G52D
# B13: FpL_C3KX 7b (designed binder)
# chain: B6 chain with E4G, S6P, E27R, G52D
# Target: human antibody (gamma globulin preparation, manufactured by The Chemo-Sero-Therapeutic Research Institute) (human)
# Test: ELISA; human gamma globulin immobilised, alkali-untreated protein extract, Anti-6-His detection
row,Antibody-binding activity (absorbance) (absorbance (450 nm)),Binder
1,0.72,B1
2,0.9,B2
3,0.74,B3
4,0.46,B4

# Target: Herceptin containing human κ light chain subgroup 1 (Vκ1) (manufactured by Chugai Pharmaceutical Co., Ltd.)
# Test: ELISA; antibody immobilised, binding protein added, Anti-6-His detection (method of Example 21(4))
row,Polyclonal antibody-binding activity (abs@450 nm),Binder
1,0.86 abs@450 nm,B5
2,0.98 abs@450 nm,B6
3,0.96 abs@450 nm,B7

# Target: human CTLA4 antibody containing human κ light chain subgroup 3 (Vκ3) (manufactured by R&D Systems)
# Test: as above
row,Polyclonal antibody-binding activity (abs@450 nm),Binder
1,0.07 abs@450 nm,B5
2,0.78 abs@450 nm,B6
3,0.06 abs@450 nm,B7

# Target: Herceptin containing human κ light chain subgroup 1 (Vκ1) (manufactured by Chugai Pharmaceutical Co., Ltd.)
# Test: ELISA; antibody immobilised (10 ug/mL), binding protein at 50 ug/mL, Anti-6-His detection, blank-subtracted
row,Polyclonal antibody-binding activity (abs@450 nm),Binder
1,0.65 abs@450 nm,B8
2,0.92 abs@450 nm,B5
3,0.87 abs@450 nm,B9
4,0.69 abs@450 nm,B10

# Target: human PCSK9 antibody containing human κ light chain subgroup 4 (Vκ4) (manufactured by R&D Systems)
# Test: as above
row,Polyclonal antibody-binding activity (abs@450 nm),Binder
1,0.55 abs@450 nm,B8
2,0.77 abs@450 nm,B5
3,0.76 abs@450 nm,B9
4,0.62 abs@450 nm,B10

# Target: human PDGF R alpha antibody containing human κ light chain subgroup 3 (Vκ3) (manufactured by R&D Systems)
# Test: as above
row,Polyclonal antibody-binding activity (abs@450 nm),Binder
1,0.59 abs@450 nm,B8
2,0.21 abs@450 nm,B5
3,0.12 abs@450 nm,B9
4,0.56 abs@450 nm,B10

# Target: human CTLA4 antibody containing human κ light chain subgroup 3 (Vκ3) (manufactured by R&D Systems)
# Test: as above
row,Polyclonal antibody-binding activity (abs@450 nm),Binder
1,0.66 abs@450 nm,B8
2,0.32 abs@450 nm,B5
3,0.21 abs@450 nm,B9
4,0.63 abs@450 nm,B10

# Target: immunoglobulin immobilized on IgG Sepharose 6 Fast Flow (manufactured by Cytiva)
# Test: IgG Sepharose 6 Fast Flow column; linear gradient 0.1 M citrate pH 6.5 to pH 2.2; pH at the peak of the eluted binding protein
row,Elution pH,Binder
1,2.8 pH,B8

# Target: Herceptin containing human κ light chain subgroup 1 (Vκ1) (manufactured by Chugai Pharmaceutical Co., Ltd.)
# Test: ELISA; Herceptin immobilised, binding protein at 2 ug/mL, dissociation with 0.05 M citric acid pH 2.4 for 2 min, absorbance ratio to wells without dissociation
row,Elution rate [%],Binder
1,59%,B11
2,25%,B12
3,61%,B13
